Target: S:D614G protein (SARS-CoV-2 spike with the D614G mutation, form used for cryoEM) (SARS-CoV-2 | not stated)
Test: cryo-EM structure

Substance: S:D614G protein (SARS-CoV-2 spike with the D614G mutation, form used for cryoEM)
- stoichiometry N: 3

— article PMC10424185, “C-2 Thiophenyl Tryptophan Trimers Inhibit Cellular Entry of SARS-CoV-2 through Interaction with the Viral Spike (S) Protein” (Journal of Medicinal Chemistry, 2023)
